Key:
Assay in all cases: cell-based or functional assay
[1] = target: HIV-1 Env of pseudovirus isolate MGRM-G-013 (subtype G) (HIV-1)
[2] = target: HIV-1 Env of pseudovirus isolate MGRM-G-019 (subtype G) (HIV-1)
[3] = target: HIV-1 Env of pseudovirus isolate MGRM-G-001 (subtype G) (HIV-1)
[4] = target: HIV-1 Env of isolate MGRM-D-014 (subtype D) (HIV-1)
[5] = target: HIV-1 Env of isolate MGRM-D-022 (subtype D) (HIV-1)
[6] = target: envelope of aMLV pseudovirus (negative control)
[7] = target: HIV-1 Env of isolate 92UG114 (subtype D) (HIV-1)
[8] = target: HIV-1 Env of isolate MGRM-F1-023 (subtype F) (HIV-1)
[9] = target: HIV-1 Env of isolate MGRM-D-020 (subtype D) (HIV-1)
[10] = target: HIV-1 Env of pseudovirus isolate MGRM-G-009 (subtype G) (HIV-1)
[11] = target: HIV-1 Env of isolate 92UG046 (subtype D) (HIV-1)
[12] = target: HIV-1 Env of isolate MGRM-F1-018 (subtype F) (HIV-1)
[13] = target: HIV-1 Env of isolate MGRM-D-008 (subtype D) (HIV-1)
[14] = target: HIV-1 Env of isolate MGRM-D-016 (subtype D) (HIV-1)
[15] = target: HIV-1 Env of pseudovirus isolate MGRM-G-006 (subtype G) (HIV-1)
[16] = target: HIV-1 Env of isolate MGRM-F1-016 (subtype F) (HIV-1)
[17] = target: HIV-1 Env of isolate 98CN009 (subtype CRF07_BC) (HIV-1)
[18] = target: HIV-1 Env of isolate MGRM-D-001 (subtype D) (HIV-1)
[19] = target: HIV-1 Env of isolate MGRM-F1-014 (subtype F) (HIV-1)
[20] = target: HIV-1 Env of isolate MGRM-D-011 (subtype D) (HIV-1)
[21] = target: HIV-1 Env of isolate MGRM-D-013 (subtype D) (HIV-1)
[22] = target: HIV-1 Env of isolate MGRM-D-019 (subtype D) (HIV-1)
[23] = target: HIV-1 Env of isolate MGRM-D-018 (subtype D) (HIV-1)
[24] = target: HIV-1 Env of isolate 92UG001 (subtype D) (HIV-1)
[25] = target: HIV-1 Env of isolate MGRM-F1-017 (subtype F) (HIV-1)
[26] = target: HIV-1 Env of pseudovirus isolate MGRM-G-004 (subtype G) (HIV-1)
[27] = target: HIV-1 Env of pseudovirus isolate MGRM-G-025 (subtype G) (HIV-1)
[28] = target: HIV-1 Env of isolate MGRM-D-002 (subtype D) (HIV-1)
[29] = target: HIV-1 Env of isolate MGRM-F1-015 (subtype F) (HIV-1)
[30] = target: HIV-1 Env of isolate MGRM-F1-020 (subtype F) (HIV-1)
[31] = target: HIV-1 Env of isolate MGRM-F1-021 (subtype F) (HIV-1)
[32] = target: HIV-1 Env of pseudovirus isolate MGRM-G-028 (subtype G) (HIV-1)
[33] = target: HIV-1 Env of isolate MGRM-F1-013 (subtype F) (HIV-1)
[34] = target: HIV-1 Env of pseudovirus isolate MGRM-G-024 (subtype G) (HIV-1)
[35] = target: HIV-1 Env of isolate MGRM-D-012 (subtype D) (HIV-1)
[36] = target: HIV-1 Env of pseudovirus isolate MGRM-G-016 (subtype G) (HIV-1)
[37] = target: HIV-1 Env of pseudovirus isolate MGRM-G-015 (subtype G) (HIV-1)
[38] = target: HIV-1 Env of isolate MGRM-D-029 (subtype D) (HIV-1)
[39] = target: HIV-1 Env of isolate MGRM-D-005 (subtype D) (HIV-1)
[40] = target: HIV-1 Env of pseudovirus isolate MGRM-G-011 (subtype G) (HIV-1)
[41] = target: HIV-1 Env of isolate MGRM-F1-008 (subtype F) (HIV-1)
[42] = target: HIV-1 Env of isolate MGRM-D-004 (subtype D) (HIV-1)
[43] = target: HIV-1 Env of isolate 92UG005 (subtype D) (HIV-1)
[44] = target: HIV-1 Env of pseudovirus isolate MGRM-G-014 (subtype G) (HIV-1)
[45] = target: HIV-1 Env of isolate 98CN006 (subtype CRF08_BC) (HIV-1)
[46] = target: HIV-1 Env of isolate 92UG024 (subtype D) (HIV-1)
[47] = target: HIV-1 Env of isolate MGRM-D-028 (subtype D) (HIV-1)
[48] = target: HIV-1 Env of isolate MGRM-D-021 (subtype D) (HIV-1)
[49] = target: HIV-1 Env of isolate MGRM-F1-004 (subtype F) (HIV-1)
[50] = target: HIV-1 Env of isolate MGRM-D-024 (subtype D) (HIV-1)
[51] = target: HIV-1 Env of isolate MGRM-F1-022 (subtype F) (HIV-1)
[52] = target: HIV-1 Env of isolate MGRM-F1-006 (subtype F) (HIV-1)
[53] = target: HIV-1 Env of isolate MGRM-F1-012 (subtype F) (HIV-1)
[54] = target: HIV-1 Env of isolate MGRM-D-026 (subtype D) (HIV-1)
[55] = target: HIV-1 Env of isolate MGRM-D-003 (subtype D) (HIV-1)
[56] = target: HIV-1 Env of isolate MGRM-F1-010 (subtype F) (HIV-1)
[57] = target: HIV-1 Env of pseudovirus isolate MGRM-G-017 (subtype G) (HIV-1)
[58] = target: HIV-1 Env of pseudovirus isolate MGRM-G-027 (subtype G) (HIV-1)

B1: PGT-128 (antibody, V domains shown)
VH: QPQLQESGPTLVEASETLSLTCAVSGDSTAACNSFWGWVRQPPGKGLEWVGSLSHCASYWNRGWTYHNPSLKSRLTLALDTPKNLVFLKLNSVTAADTATYYCARFGGEVLRYTDWPKPAWVDLWGRGTLVTVSS
VL: QSALTQPPSASGSPGQSITISCTGTSNNFVSWYQQHAGKAPKLVIYDVNKRPSGVPDRFSGSKSGNTASLTVSGLQTDDEAVYYCGSLVGNWDVIFGGGTKLTVL
Work on B1 yielded an IC50 [1] of 0.995 µg/mL, an IC50 [2] of 0.01 µg/mL and an IC50 [3] of 0.019 µg/mL. For the same binder, the IC50 (neutralization) [4] was 0.013 µg/mL, the IC50 (neutralization) [5] was over 50 µg/mL and the IC50 [6] was over 50 µg/mL. For the same binder, the IC50 (neutralization) [7] was 0.083 µg/mL, the IC50 (neutralization) [8] was 0.007 µg/mL and the IC50 (neutralization) [9] was 0.011 µg/mL. The IC50 [10] was over 50 µg/mL, the IC50 (neutralization) [11] was over 50 µg/mL and the IC50 (neutralization) [12] was 0.023 µg/mL. The IC50 (neutralization) [13] was 0.033 µg/mL, the IC50 (neutralization) [14] was over 50 µg/mL and the IC50 [15] was over 50 µg/mL. The IC50 (neutralization) [16] was 1.21 µg/mL, the IC50 (neutralization) [17] was 0.025 µg/mL and the IC50 (neutralization) [18] was 0.138 µg/mL. It also gave an IC50 (neutralization) [19] of 0.277 µg/mL, an IC50 (neutralization) [20] of 0.007 µg/mL and an IC50 (neutralization) [21] of 8.85 µg/mL. The IC50 (neutralization) [22] was over 50 µg/mL, the IC50 (neutralization) [23] was 0.008 µg/mL and the IC50 (neutralization) [24] was over 50 µg/mL. The IC50 (neutralization) [25] was 11.7 µg/mL, the IC50 [26] was over 50 µg/mL and the IC50 [27] was 0.017 µg/mL. The IC50 (neutralization) [28] was 0.011 µg/mL, the IC50 (neutralization) [29] was over 50 µg/mL and the IC50 (neutralization) [30] was 0.355 µg/mL. The IC50 (neutralization) [31] was over 50 µg/mL, the IC50 [32] was 0.008 µg/mL and the IC50 (neutralization) [33] was 12.7 µg/mL. The IC50 [34] was 0.095 µg/mL, the IC50 (neutralization) [35] was over 50 µg/mL and the IC50 [36] was over 50 µg/mL. For the same binder, the IC50 [37] was over 50 µg/mL, the IC50 (neutralization) [38] was over 50 µg/mL and the IC50 (neutralization) [39] was 0.051 µg/mL. The IC50 [40] was 8.21 µg/mL, the IC50 (neutralization) [41] was over 50 µg/mL and the IC50 (neutralization) [42] was 24.9 µg/mL. The IC50 (neutralization) [43] was 0.018 µg/mL, the IC50 [44] was 0.004 µg/mL and the IC50 (neutralization) [45] was 0.015 µg/mL. It also gave an IC50 (neutralization) [46] of over 50 µg/mL, an IC50 (neutralization) [47] of over 50 µg/mL and an IC50 (neutralization) [48] of 0.014 µg/mL. For the same binder, the IC50 (neutralization) [49] was 0.027 µg/mL, the IC50 (neutralization) [50] was 0.067 µg/mL and the IC50 (neutralization) [51] was 4.54 µg/mL. It also gave an IC50 (neutralization) [52] of 0.763 µg/mL, an IC50 (neutralization) [53] of 0.007 µg/mL and an IC50 (neutralization) [54] of over 50 µg/mL. For the same binder, the IC50 (neutralization) [55] was 0.019 µg/mL, the IC50 (neutralization) [56] was 16.7 µg/mL and the IC50 [57] was 0.319 µg/mL. For the same binder, the IC50 [58] was 0.313 µg/mL.

B2: PGT-130 (antibody, V domains shown)
VH: QVQLQESGPGLVKPAETLSLTCSVSGESINTGHYYWGWVRQVPGKGLEWIGHIHYTTAVLHNPSLKSRLTIKIYTLRNQITLRLSNVTAADTAVYHCVRSGGDILYYYEWQKPHWFSPWGPGIHVTVSS
VL: QSALTQPPSASGSLGQSVTISCNGTSSDIGGWNFVSWYQQFPGRAPRLIIFEVNKRPSGVPGRFSGSKSGNSASLTVSGLQSDDEGQYFCSSLFGRWDVVFGGGTKLTVL
Binder B2 has an IC50 [1] of over 50 µg/mL, an IC50 [2] of 27.9 µg/mL and an IC50 [3] of 0.0198 µg/mL. For the same binder, the IC50 (neutralization) [4] was 0.061 µg/mL, the IC50 (neutralization) [5] was over 50 µg/mL and the IC50 [6] was over 50 µg/mL. It also gave an IC50 (neutralization) [7] of over 50 µg/mL, an IC50 (neutralization) [8] of 0.05 µg/mL and an IC50 (neutralization) [9] of 24.7 µg/mL. The IC50 [10] was over 50 µg/mL, the IC50 (neutralization) [11] was over 50 µg/mL and the IC50 (neutralization) [12] was over 50 µg/mL. It also gave an IC50 (neutralization) [13] of over 50 µg/mL, an IC50 (neutralization) [14] of over 50 µg/mL and an IC50 [15] of over 50 µg/mL. For the same binder, the IC50 (neutralization) [16] was over 50 µg/mL, the IC50 (neutralization) [17] was 0.136 µg/mL and the IC50 (neutralization) [18] was over 50 µg/mL. The IC50 (neutralization) [19] was 11.8 µg/mL, the IC50 (neutralization) [20] was 0.019 µg/mL and the IC50 (neutralization) [21] was 0.429 µg/mL. It also gave an IC50 (neutralization) [22] of over 50 µg/mL, an IC50 (neutralization) [23] of 0.049 µg/mL and an IC50 (neutralization) [24] of over 50 µg/mL. It also gave an IC50 (neutralization) [25] of over 50 µg/mL, an IC50 [26] of over 50 µg/mL and an IC50 [27] of 8.45 µg/mL. It also gave an IC50 (neutralization) [28] of 0.869 µg/mL, an IC50 (neutralization) [29] of over 50 µg/mL and an IC50 (neutralization) [30] of 9.73 µg/mL. The IC50 (neutralization) [31] was over 50 µg/mL, the IC50 [32] was 0.074 µg/mL and the IC50 (neutralization) [33] was over 50 µg/mL. For the same binder, the IC50 [34] was 5.84 µg/mL, the IC50 (neutralization) [35] was over 50 µg/mL and the IC50 [36] was over 50 µg/mL. The IC50 [37] was over 50 µg/mL, the IC50 (neutralization) [38] was over 50 µg/mL and the IC50 (neutralization) [39] was over 50 µg/mL. For the same binder, the IC50 [40] was over 50 µg/mL, the IC50 (neutralization) [41] was 0.065 µg/mL and the IC50 (neutralization) [42] was 1.21 µg/mL. It also gave an IC50 (neutralization) [43] of 0.959 µg/mL, an IC50 [44] of 2.23 µg/mL and an IC50 (neutralization) [45] of 0.258 µg/mL. For the same binder, the IC50 (neutralization) [46] was over 50 µg/mL, the IC50 (neutralization) [47] was 0.825 µg/mL and the IC50 (neutralization) [48] was 0.156 µg/mL. For the same binder, the IC50 (neutralization) [49] was 0.023 µg/mL, the IC50 (neutralization) [50] was over 50 µg/mL and the IC50 (neutralization) [51] was over 50 µg/mL. It also gave an IC50 (neutralization) [52] of over 50 µg/mL, an IC50 (neutralization) [53] of over 50 µg/mL and an IC50 (neutralization) [54] of over 50 µg/mL. It also gave an IC50 (neutralization) [55] of 0.651 µg/mL, an IC50 (neutralization) [56] of over 50 µg/mL and an IC50 [57] of over 50 µg/mL. It also gave an IC50 [58] of 4.14 µg/mL.
